Laboratory results as given in article PMC5563082, “Structural Mechanism for Modulation of Synaptic Neuroligin-Neurexin Signaling by MDGA Proteins” (Neuron, 2017).

Legend:
[1] = molecular target: T1, human MDGA2 extracellular domain (MDGA2_(ECTO); Gln21-Lys927) (human, UniProt Q7Z553 21-927); assay: SPR; biotinylated NL_(ECTO)-Avitag variants captured from dialysed conditioned medium on streptavidin CM5 chip (500 RU; 550 RU for the ΔSite series; 1000 RU for NL3 and NL3 Arg451Cys in the R451C series); β-NRX1_(LNS6)(±4), MDGA1_(ECTO), MDGA2_(ECTO) injected, 15 concentrations, two-fold series from 50 μM; TBS-CTB (10 mM Tris pH 7.4, 150 mM NaCl, 3 mM CaCl2, 0.005% Tween-20, 1.0 g/L BSA); equilibrium analysis, 1:1 …; conditions: both partners purified
T1 construct: human MAM domain-containing glycosylphosphatidylinositol anchor protein 2, Gln21-Lys927; Not deglycosylated; source: HEK293T, transient transfection, purified (IMAC, SEC)
T1 sequence (looked up): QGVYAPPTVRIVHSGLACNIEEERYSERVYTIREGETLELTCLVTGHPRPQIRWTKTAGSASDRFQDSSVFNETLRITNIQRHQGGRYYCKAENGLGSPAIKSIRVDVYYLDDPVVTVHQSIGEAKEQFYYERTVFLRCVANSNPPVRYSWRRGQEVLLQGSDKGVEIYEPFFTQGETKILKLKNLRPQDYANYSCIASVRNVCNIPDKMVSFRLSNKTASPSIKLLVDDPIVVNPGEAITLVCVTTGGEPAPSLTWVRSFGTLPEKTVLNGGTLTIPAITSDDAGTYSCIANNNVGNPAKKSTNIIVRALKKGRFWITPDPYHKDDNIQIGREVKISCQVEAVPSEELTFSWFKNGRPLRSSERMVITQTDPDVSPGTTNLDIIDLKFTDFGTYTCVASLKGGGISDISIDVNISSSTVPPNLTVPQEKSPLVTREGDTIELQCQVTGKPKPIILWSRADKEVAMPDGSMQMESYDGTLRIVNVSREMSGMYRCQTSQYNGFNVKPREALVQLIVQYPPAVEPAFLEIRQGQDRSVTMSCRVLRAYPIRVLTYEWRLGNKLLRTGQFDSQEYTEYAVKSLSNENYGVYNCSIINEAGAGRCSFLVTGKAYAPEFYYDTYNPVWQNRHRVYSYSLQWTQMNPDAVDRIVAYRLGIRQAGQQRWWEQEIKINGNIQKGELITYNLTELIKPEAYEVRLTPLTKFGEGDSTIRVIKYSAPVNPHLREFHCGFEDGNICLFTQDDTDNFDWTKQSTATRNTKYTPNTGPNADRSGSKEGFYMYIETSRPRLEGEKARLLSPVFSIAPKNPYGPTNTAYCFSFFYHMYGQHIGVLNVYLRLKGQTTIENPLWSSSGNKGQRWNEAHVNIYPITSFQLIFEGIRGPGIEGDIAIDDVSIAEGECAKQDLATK

[2] = molecular target: T2, human MDGA1 extracellular domain (MDGA1_(ECTO); Gln19-Lys925) (human, UniProt Q8NFP4-1 19-925); assay: as above; conditions: both partners purified
T2 construct: human MAM domain-containing glycosylphosphatidylinositol anchor protein 1, Gln19-Lys925; Not deglycosylated; also called human MDGA1_(ECTO); source: HEK293T, transient transfection, purified (IMAC, SEC)
T2 sequence (looked up): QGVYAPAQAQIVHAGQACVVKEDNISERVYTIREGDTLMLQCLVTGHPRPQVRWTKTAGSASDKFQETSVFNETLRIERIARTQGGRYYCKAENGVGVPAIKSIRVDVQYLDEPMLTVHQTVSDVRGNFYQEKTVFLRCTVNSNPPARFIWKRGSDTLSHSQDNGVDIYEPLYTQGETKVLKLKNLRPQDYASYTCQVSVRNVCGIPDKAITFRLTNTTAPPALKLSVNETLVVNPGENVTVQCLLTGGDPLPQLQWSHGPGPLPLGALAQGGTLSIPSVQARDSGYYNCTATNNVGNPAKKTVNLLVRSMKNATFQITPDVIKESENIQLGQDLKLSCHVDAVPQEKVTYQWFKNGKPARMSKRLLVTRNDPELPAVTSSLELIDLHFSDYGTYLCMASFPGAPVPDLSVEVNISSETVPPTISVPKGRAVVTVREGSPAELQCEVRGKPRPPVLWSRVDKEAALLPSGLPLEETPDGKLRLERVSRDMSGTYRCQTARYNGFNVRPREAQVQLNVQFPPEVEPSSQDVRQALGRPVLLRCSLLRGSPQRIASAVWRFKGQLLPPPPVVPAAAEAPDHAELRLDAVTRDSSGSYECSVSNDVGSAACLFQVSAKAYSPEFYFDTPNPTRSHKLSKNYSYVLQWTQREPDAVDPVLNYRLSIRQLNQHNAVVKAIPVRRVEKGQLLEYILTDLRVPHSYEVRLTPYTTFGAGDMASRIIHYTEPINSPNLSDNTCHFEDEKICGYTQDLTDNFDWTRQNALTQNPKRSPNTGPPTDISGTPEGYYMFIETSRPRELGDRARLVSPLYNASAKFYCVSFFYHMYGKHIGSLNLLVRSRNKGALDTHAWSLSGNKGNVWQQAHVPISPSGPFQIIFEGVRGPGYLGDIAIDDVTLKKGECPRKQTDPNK

B1: human NL2(–A)_(ECTO) (Glu38-His612), immobilised for SPR (domain or fragment, UniProt Q8NFZ4 38-612, looked up)
chain: EERFPVVNTAYGRVRGVRRELNNEILGPVVQFLGVPYATPPLGARRFQPPEAPASWPGVRNATTLPPACPQNLHGALPAIMLPVWFTDNLEAAATYVQNQSEDCLYLNLYVPTEDDIRDPGKKPVMLFLHGGSYMEGTGNMFDGSVLAAYGNVIVATLNYRLGVLGFLSTGDQAAKGNYGLLDQIQALRWLSENIAHFGGDPERITIFGSGAGASCVNLLILSHHSEGLFQKAIAQSGTAISSWSVNYQPLKYTRLLAAKVGCDREDSAEAVECLRRKPSRELVDQDVQPARYHIAFGPVVDGDVVPDDPEILMQQGEFLNYDMLIGVNQGEGLKFVEDSAESEDGVSASAFDFTVSNFVDNLYGYPEGKDVLRETIKFMYTDWADRDNGEMRRKTLLALFTDHQWVAPAVATAKLHADYQSPVYFYTFYHHCQAEGRPEWADAAHGDELPYVFGVPMVGATDLFPCNFSKNDVMLSAVVMTYWTNFAKTGDPNQPVPQDTKFIHTKPNRFEEVVWSKFNSKEKQYLHIGLKPRVRDNYRANKVAFWLELVPHLHNLH
modifications: biotin on the Avitag (in vivo biotinylation by BirA)
notes: also called NL2_(ECTO); source: HEK293T, co-transfected with ER-resident BirA; dialysed conditioned medium, captured on streptavidin chip
**Q.** What does the source list for B1?
**A.** Kd [1]: ~1000 nM; Kd [2]: ~2000 nM

B2: human NL3(–A)_(ECTO) (Gln38-Asp636), immobilised for SPR (domain or fragment, UniProt Q9NZ94-1 38-636, looked up)
chain: QAPAPTVNTHFGKLRGARVPLPSEILGPVDQYLGVPYAAPPIGEKRFLPPEPPPSWSGIRNATHFPPVCPQNIHTAVPEVMLPVWFTANLDIVATYIQEPNEDCLYLNVYVPTEDDIRDSGAKPVMVYIHGGSYMEGTGNMIDGSILASYGNVIVITLNYRVGVLGFLSTGDQAAKGNYGLLDQIQALRWVSENIAFFGGDPRRITVFGSGIGASCVSLLTLSHHSEGLFQRAIIQSGSALSSWAVNYQPVKYTSLLADKVGCNVLDTVDMVDCLRQKSAKELVEQDIQPARYHVAFGPVIDGDVIPDDPEILMEQGEFLNYDIMLGVNQGEGLKFVEGVVDPEDGVSGTDFDYSVSNFVDNLYGYPEGKDTLRETIKFMYTDWADRDNPETRRKTLVALFTDHQWVEPSVVTADLHARYGSPTYFYAFYHHCQSLMKPAWSDAAHGDEVPYVFGVPMVGPTDLFPCNFSKNDVMLSAVVMTYWTNFAKTGDPNKPVPQDTKFIHTKANRFEEVAWSKYNPRDQLYLHIGLKPRVRDHYRATKVAFWKHLVPHLYNLHD
modifications: biotin on the Avitag (in vivo biotinylation by BirA)
notes: also called NL3_(ECTO); source: HEK293T, co-transfected with ER-resident BirA; dialysed conditioned medium, captured on streptavidin chip
**Q.** Does B2 bind [1]?
**A.** binds

**Q.** Does B2 bind [2]?
**A.** binds

B3: human NL4_(ECTO) (NL4(X); Gln42-Glu602), immobilised for SPR (domain or fragment)
chain: QAQYPVVNTNYGKIRGLRTPLPNEILGPVEQYLGVPYASPPTGERRFQPPEPPSSWTGIRNTTQFAAVCPQHLDERSLLHDMLPIWFTANLDTLMTYVQDQNEDCLYLNIYVPTEDDIHDQNSKKPVMVYIHGGSYMEGTGNMIDGSILASYGNVIVITINYRLGILGFLSTGDQAAKGNYGLLDQIQALRWIEENVGAFGGDPKRVTIFGSGAGASCVSLLTLSHYSEGLFQKAIIQSGTALSSWAVNYQPAKYTRILADKVGCNMLDTTDMVECLRNKNYKELIQQTITPATYHIAFGPVIDGDVIPDDPQILMEQGEFLNYDIMLGVNQGEGLKFVDGIVDNEDGVTPNDFDFSVSNFVDNLYGYPEGKDTLRETIKFMYTDWADKENPETRRKTLVALFTDHQWVAPAVATADLHAQYGSPTYFYAFYHHCQSEMKPSWADSAHGDEVPYVFGIPMIGPTELFSCNFSKNDVMLSAVVMTYWTNFAKTGDPNQPVPQDTKFIHTKPNRFEEVAWSKYNPKDQLYLHIGLKPRVRDHYRATKVAFWLELVPHLHNLNE
modifications: biotin on the Avitag (in vivo biotinylation by BirA)
notes: human neuroligin-4 (X-linked), Gln42-Glu602; source: HEK293T, co-transfected with ER-resident BirA; dialysed conditioned medium, captured on streptavidin chip
**Q.** What does the source list for B3?
**A.** binding result [1]: binds; binding result [2]: binds

B4: human NL5_(ECTO) (NL4(Y); Gln42-Glu602), immobilised for SPR (domain or fragment)
chain: QAQYPVVNTNYGKIQGLRTPLPSEILGPVEQYLGVPYASPPTGERRFQPPESPSSWTGIRNATQFSAVCPQHLDERFLLHDMLPIWFTTSLDTLMTYVQDQNEDCLYLNIYVPMEDDIHEQNSKKPVMVYIHGGSYMEGTGNMIDGSILASYGNVIVITINYRLGILGFLSTGDQAAKGNYGLLDQIQALRWIEENVGAFGGDPKRVTIFGSGAGASCVSLLTLSHYSEGLFQKAIIQSGTALSSWAVNYQPAKYTRILADKVGCNMLDTTDMVECLKNKNYKELIQQTITPATYHIAFGPVIDGDVIPDDPQILMEQGEFLNYDIMLGVNQGEGLKFVDGIVDNEDGVTPNDFDFSVSNFVDNLYGYPEGKDTLRETIKFMYTDWADKENPETRRKTLVALFTDHQWVAPAVATADLHAQYGSPTYFYAFYHHCQSEMKPSWADSAHGDEVPYVFGIPMIGPTELFSCNFSKNDVMLSAVVMTYWTNFAKTGDPNQPVPQDTKFIHTKPNRFEEVAWSKYNPKDQLYLHIGLKPRVRDHYRATKVAFWLELVPHLHNLNE
modifications: biotin on the Avitag (in vivo biotinylation by BirA)
notes: human neuroligin-5 (neuroligin-4, Y-linked), Gln42-Glu602; source: HEK293T, co-transfected with ER-resident BirA; dialysed conditioned medium, captured on streptavidin chip
**Q.** Does B4 bind [1]?
**A.** binds

**Q.** Does B4 bind [2]?
**A.** binds

B5: human NL2(+A)_(ECTO), immobilised for SPR (domain or fragment, UniProt Q8NFZ4 38-612, looked up)
chain: EERFPVVNTAYGRVRGVRRELNNEILGPVVQFLGVPYATPPLGARRFQPPEAPASWPGVRNATTLPPACPQNLHGALPAIMLPVWFTDNLEAAATYVQNQSEDCLYLNLYVPTEDGPLTKKRDEATLNPPDTDIRDPGKKPVMLFLHGGSYMEGTGNMFDGSVLAAYGNVIVATLNYRLGVLGFLSTGDQAAKGNYGLLDQIQALRWLSENIAHFGGDPERITIFGSGAGASCVNLLILSHHSEGLFQKAIAQSGTAISSWSVNYQPLKYTRLLAAKVGCDREDSAEAVECLRRKPSRELVDQDVQPARYHIAFGPVVDGDVVPDDPEILMQQGEFLNYDMLIGVNQGEGLKFVEDSAESEDGVSASAFDFTVSNFVDNLYGYPEGKDVLRETIKFMYTDWADRDNGEMRRKTLLALFTDHQWVAPAVATAKLHADYQSPVYFYTFYHHCQAEGRPEWADAAHGDELPYVFGVPMVGATDLFPCNFSKNDVMLSAVVMTYWTNFAKTGDPNQPVPQDTKFIHTKPNRFEEVVWSKFNSKEKQYLHIGLKPRVRDNYRANKVAFWLELVPHLHNLH
modifications: biotin on the Avitag (in vivo biotinylation by BirA)
notes: source: HEK293T, co-transfected with ER-resident BirA; dialysed conditioned medium, captured on streptavidin chip
**Q.** Does B5 bind [1]?
**A.** binds

**Q.** Does B5 bind [2]?
**A.** binds

B6: human NL3(+A1)_(ECTO), immobilised for SPR (domain or fragment, UniProt Q9NZ94-1 38-636, looked up)
chain: QAPAPTVNTHFGKLRGARVPLPSEILGPVDQYLGVPYAAPPIGEKRFLPPEPPPSWSGIRNATHFPPVCPQNIHTAVPEVMLPVWFTANLDIVATYIQEPNEDCLYLNVYVPTEDVKRISKECARKPNKKICRKGDIRDSGAKPVMVYIHGGSYMEGTGNMIDGSILASYGNVIVITLNYRVGVLGFLSTGDQAAKGNYGLLDQIQALRWVSENIAFFGGDPRRITVFGSGIGASCVSLLTLSHHSEGLFQRAIIQSGSALSSWAVNYQPVKYTSLLADKVGCNVLDTVDMVDCLRQKSAKELVEQDIQPARYHVAFGPVIDGDVIPDDPEILMEQGEFLNYDIMLGVNQGEGLKFVEGVVDPEDGVSGTDFDYSVSNFVDNLYGYPEGKDTLRETIKFMYTDWADRDNPETRRKTLVALFTDHQWVEPSVVTADLHARYGSPTYFYAFYHHCQSLMKPAWSDAAHGDEVPYVFGVPMVGPTDLFPCNFSKNDVMLSAVVMTYWTNFAKTGDPNKPVPQDTKFIHTKANRFEEVAWSKYNPRDQLYLHIGLKPRVRDHYRATKVAFWKHLVPHLYNLHD
modifications: biotin on the Avitag (in vivo biotinylation by BirA)
notes: as for B5
**Q.** Does B6 bind [1]?
**A.** binds

**Q.** Does B6 bind [2]?
**A.** binds
